Assay results taken from the supplement of paper PMC11780869.

Tested on: Bacillus subtilis
Experiment: cleaved RNA product abundance (RNA/gDNA barcode ratio) relative to median wild-type variant (ratio to wild type); higher = more accumulation of the downstream cleavage product
Conditions: cleavage site: cggR-gapA (positions -7 to +36 mutated)
Experimental: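 MPRA in B. subtilis. Mutagenized RNase Y cleavage-site regions (9% mutation rate) were inserted into a barcoded reporter mRNA (truncated aprE or tetM). Cells were grown in LB at 37°C to OD600 0.3. The cleaved RNA isoform was gel-purified and its barcodes counted; the RNA:gDNA barcode ratio was normalised to the median wild-type variant, and the median over barcodes is reported per variant. The printed sequence is the variable window only; the reporter flanks are not printed.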

[1] = experiment (reporter, strain, medium): exp 2b: truncated aprE reporter, strain BJT200
[2] = experiment (reporter, strain, medium): exp 4a: truncated aprE reporter, strain BJT201 with 2% xylose (RNase J1 expressed)

Row | Sequence | cleaved RNA product abundance [1] | cleaved RNA product abundance [2] | cleaved RNA product abundance (experiment (reporter, strain, medium): exp 6: tetM reporter, strain 168)
1 | ACAGACGAAGGAGCCGCAAAAAAGTTATTAAGGGTTGAATAATCCCTCAATATAAATATCTCTCACTTATTTAAA | 0.373 | 0.512 | 
2 | ACAGACGAAGGAGCCGCAAAAAAGTTATTAAGGTATAAATAATCCCTCAATATAAATATCTCTCACTTATTTAAA |  | 0.0805 | 
3 | ACAGACGAAGGAGCCGCAAAAAAGTTATTAAGGTATGAATAATCCATCAATATAAATATCTCTCACTTATTTAAA |  | 0.23 | 
4 | ACAGACGAAGGAGCCGCAAAAAAGTTATTAAGGTATGAATAATCCCTCAATATAAATATCTCTCACTTATTTAAA | 0.121 | 0.17 | 
5 | ACAGACGAAGGAGCCGCAAAAAAGTTATTAAGTGATGAATAATCCCTCAATATAAATATCTCTCACTTATTTAAA | 0.119 | 0.0972 | 
6 | ACAGACGAAGGAGCCGCAAAAAAGTTATTAATGGATGAATAATCCCTCAATATAAATATCTCTCACTTATTTAAA | 0.0715 | 0.149 | 
7 | ACAGACGAAGGAGCCGCAAAAAAGTTATTAATGGCTGAATAATCCCTCAATATAAATATCTCTCACTTATTTAAA |  | 0.0935 | 
8 | ACAGACGAAGGAGCCGCAAAAAAGTTATTACGGGATGAATAATCCCTCAATATAAATATCTCTCACTTATTTAAA | 0.329 | 0.364 | 
9 | ACAGACGAAGGAGCCGCAAAAAAGTTATTAGGGGATGAATAATCCCTCAATATAAATATCTCTCACTTATTTAAA |  | 0.608 | 
10 | ACAGACGAAGGAGCCGCAAAAAAGTTATTATGGGATGAATAATCCCTCAATATAAATATCTCTCACTTATTTAAA | 0.323 | 0.334 | 
11 | ACAGACGAAGGAGCCGCAAAAAAGTTATTCAGGGATGAATAATCCCTCAATATAAATATCTCTCACTTATTTAAA |  | 0.962 | 
12 | ACAGACGAAGGAGCCGCAAAAAAGTTATTTAGGGATGAATAATCCCTCAATATAAATATCTCTCACTTATTTAAA |  | 0.552 | 
13 | ACAGACGAAGGAGCCGCAAAAAAGTTCTTAAGGGATGAATAATCCCTCAATATAAATATCTCTCACTTATTTAAA |  | 0.218 | 
14 | ACAGACGAAGGAGCCGCAAAAAAGTTGTTAAGGGATGAATAATCCCTCAATATAAATATCTCTCACTTATTTAAA | 0.388 | 0.355 | 
15 | ACAGACGAAGGAGCCGCAAAAAAGTTTTTAAGGGATGAATAATCCCTCAATATAAATATCTCTCACTTATTTAAA | 0.281 | 0.435 | 
16 | ACAGACGAAGGAGCCGCAAAAAATTTATTAAGCGATGAATAATCCCTCAATATAAATATCTCTCACTTATTTAAA |  | 0.113 | 
17 | ACAGACGAAGGAGCCGCAAAAAATTTATTAAGGGATGAATAATCCCTCAATATAAATATCTCTCACTTATTTAAA | 1.19 | 0.66 | 
18 | ACAGACGAAGGAGCCGCAAAAACGTTATTAAGGGATGAATAATCCCTCAATATAAATATCTCTCACTTATTTAAA |  | 1.04 | 
19 | ACAGACGAAGGAGCCGCAAAAAGGTTATTAAGGGATGAATAATCCCTCAATATAAATATCTCTCACTTATTTAAA |  | 1.68 | 

Row | Sequence | cleaved RNA product abundance [1] | cleaved RNA product abundance [2] | cleaved RNA product abundance (experiment (reporter, strain, medium): exp 6: tetM reporter, strain 168)
20 | ACAGACGAAGGAGCCGCAAAAATGTTATTAAGGGATGAATAATCCCTCAATATAAATATCTCTCACTTATTTAAA |  | 0.983 | 
21 | ACAGACGAAGGAGCCGCAAAACAGTTATTAAGGGATGAATAATCCCTCAATATAAATATCTCTCACTTATTTAAA | 0.865 | 0.897 | 
22 | ACAGACGAAGGAGCCGCAAAAGAAGTTATTAAGGGATGAATAATCCCTCAATATAAATATCTCTCACTTATTTAA |  | 1.06 | 
23 | ACAGACGAAGGAGCCGCAAAATAGTTATTAAGGGATGAATAATCCCTCAATATAAATATCTCTCACTTATTTAAA |  | 0.703 | 
24 | ACAGACGAAGGAGCCGCAAACAAATTATTAAGGGATGAATAATCCCTCAATATAAATATCTCTCACTTATTTAAA | 0.711 | 0.696 | 
25 | ACAGACGAAGGAGCCGCAAACAACTTATTAAGGGATGAATAATCCCTCAATATAAATATCTCTCACTTATTTAAA | 0.172 |  | 
26 | ACAGACGAAGGAGCCGCAAACAAGATATTAAGGGATGAATAATCCCTCAATATAAATATCTCTCACTTATTTAAA |  | 0.827 | 
27 | ACAGACGAAGGAGCCGCAAACAAGGTATTAAGGGATGAATAATCCCTCAATATAAATATCTCTCACTTATTTAAA |  | 1.23 | 
28 | ACAGACGAAGGAGCCGCAAACAAGTAATTAAGGGATGAATAATCCCTCAATATAAATATCTCTCACTTATTTAAA | 0.177 | 0.214 | 
29 | ACAGACGAAGGAGCCGCAAACAAGTGATTAAGGGATGAATAATCCCTCAATATAAATATCTCTCACTTATTTAAA | 0.223 | 0.27 | 
30 | ACAGACGAAGGAGCCGCAAACAAGTTAATAAGGGATGAATAATCCCTCAATATAAATATCTCTCACTTATTTAAA |  | 0.274 | 
31 | ACAGACGAAGGAGCCGCAAACAAGTTACTAAGGGATGAATAATCCCTCAATATAAATATCTCTCACTTATTTAAA | 0.169 |  | 
32 | ACAGACGAAGGAGCCGCAAACAAGTTATAAAAGGATGAATAATCCCTCAATATAAATATCTCTCACTTATTTAAA | 0.139 |  | 
33 | ACAGACGAAGGAGCCGCAAACAAGTTATAAAGGGATGAATAATCCCTCAATATAAATATCTCTCACTTATTTAAA |  | 0.408 | 
34 | ACAGACGAAGGAGCCGCAAACAAGTTATGAAGGGATGAATAATCCCTCAATATAAATATCTCTCACTTATTTAAA |  | 0.239 | 
35 | ACAGACGAAGGAGCCGCAAACAAGTTATTAAAGGATGAATAATCCCTCAATATAAATATCTCTCACTTATTTAAA | 0.121 | 0.116 | 
36 | ACAGACGAAGGAGCCGCAAACAAGTTATTAAAGGATGAATAATCCCTCATTATAAATATCTCTCACTTATTTAAA |  | 0.115 | 
37 | ACAGACGAAGGAGCCGCAAACAAGTTATTAAATGATGAATAATCCCTCAATATAAATATCTCTCACTTATTTAAA |  | 0.101 | 
38 | ACAGACGAAGGAGCCGCAAACAAGTTATTAACGGATGAATAATCCCTCAATATAAATATCTCTCACTTATTTAAA | 0.111 | 0.0915 | 

Row | Sequence | cleaved RNA product abundance [1] | cleaved RNA product abundance [2] | cleaved RNA product abundance (experiment (reporter, strain, medium): exp 6: tetM reporter, strain 168)
39 | ACAGACGAAGGAGCCGCAAACAAGTTATTAAGAGATGAATAATCACTCAATATAAATATCTCTCACTTATTTAAA | 0.106 | 0.126 | 
40 | ACAGACGAAGGAGCCGCAAACAAGTTATTAAGAGATGAATAATCCCTCAATATAAATATCTCTCACTTATTTAAA | 0.0959 | 0.118 | 
41 | ACAGACGAAGGAGCCGCAAACAAGTTATTAAGCGATGAATAATCCCTCAATATAAATATCTCTCACTTATTTAAA | 0.0729 | 0.0647 | 
42 | ACAGACGAAGGAGCCGCAAACAAGTTATTAAGGAATGAATAATCCCTCAATATAAATATCTCTCACTTATTTAAA | 0.115 | 0.123 | 0.139
43 | ACAGACGAAGGAGCCGCAAACAAGTTATTAAGGGAAGAATAATCCCTCAATATAAATATCTCTCACTTATTTAAA |  | 0.558 | 
44 | ACAGACGAAGGAGCCGCAAACAAGTTATTAAGGGACGAATAATCCCTCAATATAAATATCTCTCACTTATTTAAA |  | 0.279 | 
45 | ACAGACGAAGGAGCCGCAAACAAGTTATTAAGGGATAAATAATCCCTCAATATAAATATCTCTCACTTATTTAAA |  | 0.649 | 
46 | ACAGACGAAGGAGCCGCAAACAAGTTATTAAGGGATCAATAATCCCTCAATATAAATATCTCTCACTTATTTAAA |  | 0.443 | 
47 | ACAGACGAAGGAGCCGCAAACAAGTTATTAAGGGATGAAAAATCCCTCAATATAAATATCTCTCACTTATTTAAA |  | 0.359 | 
48 | ACAGACGAAGGAGCCGCAAACAAGTTATTAAGGGATGAACAATCCCTCAATATAAATATCTCTCACTTATTTAAA |  | 0.451 | 
49 | ACAGACGAAGGAGCCGCAAACAAGTTATTAAGGGATGAATAAACCCTCAATATAAATATCTCTCACTTATTTAAA | 0.29 | 0.38 | 
50 | ACAGACGAAGGAGCCGCAAACAAGTTATTAAGGGATGAATAATACCTCAATATAAATATCTCTCACTTATTTAAA | 0.107 | 0.12 | 
51 | ACAGACGAAGGAGCCGCAAACAAGTTATTAAGGGATGAATAATCACTCAATATAAATATCTCTCACTTATTTAAA |  | 0.127 | 
52 | ACAGACGAAGGAGCCGCAAACAAGTTATTAAGGGATGAATAATCCATCAATATAAATATCTCTCACTTATTTAAA | 0.182 | 0.192 | 
53 | ACAGACGAAGGAGCCGCAAACAAGTTATTAAGGGATGAATAATCCCACAATATAAATATCTCTCACTTATTTAAA | 0.109 | 0.255 | 
54 | ACAGACGAAGGAGCCGCAAACAAGTTATTAAGGGATGAATAATCCCCCAATATAAATATCTCTCACTTATTTAAA |  | 0.137 | 
55 | ACAGACGAAGGAGCCGCAAACAAGTTATTAAGGGATGAATAATCCCTAAATATAAATATCTCTCACTTATTTAAA |  | 0.47 | 
56 | ACAGACGAAGGAGCCGCAAACAAGTTATTAAGGGATGAATAATCCCTCAAAATAAATATCTCTCACTTATTTAAA | 0.194 | 0.257 | 
57 | ACAGACGAAGGAGCCGCAAACAAGTTATTAAGGGATGAATAATCCCTCAACATAAATATCTCTCACTTATTTAAA |  | 0.25 | 
